system: Escherichia coli TOP10; test: shrunken log2 fold change of peptide-encoding DNA abundance (4.5 h post-induction vs induction); higher = less antimicrobial activity (less host growth inhibition); conditions: time post-induction: 4.5 h; library: site-saturation at positions 5, 18, 19, 20
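Further: peptides expressed intracellularly from a pBAD plasmid library in pooled LB shake-flask culture, induced with 0.3% L-arabinose, DNA abundance read by NGS, three biological replicates, DESeq2 with apeglm shrinkage.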

Row | Sequence | shrunken log2 fold change
1 | RRIRNRPPRLPRPRPRPESQPRP | -0.00881
2 | RRIRNRPPRLPRPRPRPESSPRP | -0.00568
3 | RRIRNRPPRLPRPRPRPETFPRP | 0.00884
4 | RRIRNRPPRLPRPRPRPETVPRP | -0.00716
5 | RRIRNRPPRLPRPRPRPEWYPRP | -0.451
6 | RRIRNRPPRLPRPRPRPEYFPRP | -0.0135
7 | RRIRNRPPRLPRPRPRPEYGPRP | -0.284
8 | RRIRNRPPRLPRPRPRPEYLPRP | 0.0183
9 | RRIRNRPPRLPRPRPRPEYVPRP | -0.05
10 | RRIRNRPPRLPRPRPRPFAEPRP | -0.238
11 | RRIRNRPPRLPRPRPRPFALPRP | 0.814
12 | RRIRNRPPRLPRPRPRPFCIPRP | -0.186
13 | RRIRNRPPRLPRPRPRPFCSPRP | -0.0765
14 | RRIRNRPPRLPRPRPRPFCTPRP | -0.351
15 | RRIRNRPPRLPRPRPRPFDNPRP | -0.465
16 | RRIRNRPPRLPRPRPRPFDTPRP | 0.0291
17 | RRIRNRPPRLPRPRPRPFEMPRP | 0.0463
18 | RRIRNRPPRLPRPRPRPFHFPRP | -0.359
19 | RRIRNRPPRLPRPRPRPFINPRP | -1.59
20 | RRIRNRPPRLPRPRPRPFIRPRP | -0.111
21 | RRIRNRPPRLPRPRPRPFKFPRP | -0.423
22 | RRIRNRPPRLPRPRPRPFLMPRP | -0.0732
23 | RRIRNRPPRLPRPRPRPFLSPRP | -0.246
24 | RRIRNRPPRLPRPRPRPFMSPRP | -0.17
25 | RRIRNRPPRLPRPRPRPFNMPRP | -0.149

Row | Sequence | shrunken log2 fold change
26 | RRIRNRPPRLPRPRPRPFPEPRP | -0.293
27 | RRIRNRPPRLPRPRPRPFQAPRP | -0.0439
28 | RRIRNRPPRLPRPRPRPFRCPRP | -0.0563
29 | RRIRNRPPRLPRPRPRPFRIPRP | -0.0132
30 | RRIRNRPPRLPRPRPRPFRKPRP | -0.0467
31 | RRIRNRPPRLPRPRPRPFSWPRP | 0.0512
32 | RRIRNRPPRLPRPRPRPFVKPRP | -0.669
33 | RRIRNRPPRLPRPRPRPFWRPRP | -0.0018
34 | RRIRNRPPRLPRPRPRPGAVPRP | 0.248
35 | RRIRNRPPRLPRPRPRPGDIPRP | 0.0338
36 | RRIRNRPPRLPRPRPRPGELPRP | -0.0397
37 | RRIRNRPPRLPRPRPRPGFFPRP | 0.263
38 | RRIRNRPPRLPRPRPRPGFRPRP | 0.114
39 | RRIRNRPPRLPRPRPRPGFWPRP | 0.0198
40 | RRIRNRPPRLPRPRPRPGGGPRP | 0.723
41 | RRIRNRPPRLPRPRPRPGGLPRP | -0.13
42 | RRIRNRPPRLPRPRPRPGGVPRP | 0.239
43 | RRIRNRPPRLPRPRPRPGGWPRP | 0.662
44 | RRIRNRPPRLPRPRPRPGHPPRP | -0.0813
45 | RRIRNRPPRLPRPRPRPGIFPRP | -0.0122
46 | RRIRNRPPRLPRPRPRPGIHPRP | 0.0285
47 | RRIRNRPPRLPRPRPRPGKKPRP | -0.00783
48 | RRIRNRPPRLPRPRPRPGKYPRP | -0.117
49 | RRIRNRPPRLPRPRPRPGMDPRP | -0.0895
50 | RRIRNRPPRLPRPRPRPGMKPRP | -0.272

Row | Sequence | shrunken log2 fold change
51 | RRIRNRPPRLPRPRPRPGMNPRP | -0.02
52 | RRIRNRPPRLPRPRPRPGMPPRP | -0.107
53 | RRIRNRPPRLPRPRPRPGMVPRP | -0.23
54 | RRIRNRPPRLPRPRPRPGMWPRP | 0.397
55 | RRIRNRPPRLPRPRPRPGNCPRP | -0.00183
56 | RRIRNRPPRLPRPRPRPGNHPRP | -0.265
57 | RRIRNRPPRLPRPRPRPGPEPRP | 0.684
58 | RRIRNRPPRLPRPRPRPGRAPRP | 0.177
59 | RRIRNRPPRLPRPRPRPGRHPRP | 0.00674
60 | RRIRNRPPRLPRPRPRPGRIPRP | -0.0181
61 | RRIRNRPPRLPRPRPRPGVSPRP | -0.279
62 | RRIRNRPPRLPRPRPRPGWCPRP | 2.24
63 | RRIRNRPPRLPRPRPRPGWHPRP | -0.154
64 | RRIRNRPPRLPRPRPRPGWLPRP | 0.174
65 | RRIRNRPPRLPRPRPRPHAAPRP | 0.545
66 | RRIRNRPPRLPRPRPRPHAIPRP | -0.673
67 | RRIRNRPPRLPRPRPRPHALPRP | 0.0517
68 | RRIRNRPPRLPRPRPRPHCEPRP | -0.778
69 | RRIRNRPPRLPRPRPRPHCVPRP | 0.0245
70 | RRIRNRPPRLPRPRPRPHDAPRP | -0.116
71 | RRIRNRPPRLPRPRPRPHDNPRP | -0.511
72 | RRIRNRPPRLPRPRPRPHEQPRP | -0.066
73 | RRIRNRPPRLPRPRPRPHFWPRP | -0.285
74 | RRIRNRPPRLPRPRPRPHHDPRP | -1.01
75 | RRIRNRPPRLPRPRPRPHIAPRP | -0.621

Row | Sequence | shrunken log2 fold change
76 | RRIRNRPPRLPRPRPRPHIRPRP | -0.0139
77 | RRIRNRPPRLPRPRPRPHKNPRP | -0.237
78 | RRIRNRPPRLPRPRPRPHLEPRP | 0.0549
79 | RRIRNRPPRLPRPRPRPHLVPRP | -0.0893
80 | RRIRNRPPRLPRPRPRPHMIPRP | -0.168
81 | RRIRNRPPRLPRPRPRPHNHPRP | -0.739
82 | RRIRNRPPRLPRPRPRPHPDPRP | -0.15
83 | RRIRNRPPRLPRPRPRPHPIPRP | 0.033
84 | RRIRNRPPRLPRPRPRPHQYPRP | -0.458
85 | RRIRNRPPRLPRPRPRPHRFPRP | 0.0175
86 | RRIRNRPPRLPRPRPRPHSDPRP | 0.0373
87 | RRIRNRPPRLPRPRPRPHWIPRP | -0.322
88 | RRIRNRPPRLPRPRPRPHWYPRP | -0.0582
89 | RRIRNRPPRLPRPRPRPIDPPRP | -0.127
90 | RRIRNRPPRLPRPRPRPIECPRP | 0.0138
91 | RRIRNRPPRLPRPRPRPIEMPRP | -0.141
92 | RRIRNRPPRLPRPRPRPIETPRP | -0.0081
93 | RRIRNRPPRLPRPRPRPIEYPRP | -0.0134
94 | RRIRNRPPRLPRPRPRPIFGPRP | -0.0237
95 | RRIRNRPPRLPRPRPRPIFPPRP | -0.281
96 | RRIRNRPPRLPRPRPRPILQPRP | -0.387
97 | RRIRNRPPRLPRPRPRPIMNPRP | -0.619
98 | RRIRNRPPRLPRPRPRPIMRPRP | 0.00621
99 | RRIRNRPPRLPRPRPRPIMYPRP | -0.309
100 | RRIRNRPPRLPRPRPRPINDPRP | 0.0259

Row | Sequence | shrunken log2 fold change
101 | RRIRNRPPRLPRPRPRPINTPRP | -0.574
102 | RRIRNRPPRLPRPRPRPIPCPRP | -0.0228
103 | RRIRNRPPRLPRPRPRPIPKPRP | -0.0467
104 | RRIRNRPPRLPRPRPRPIPMPRP | -0.026
105 | RRIRNRPPRLPRPRPRPIPSPRP | 0.0499
106 | RRIRNRPPRLPRPRPRPIQMPRP | -0.0365
107 | RRIRNRPPRLPRPRPRPISNPRP | 0.0351
108 | RRIRNRPPRLPRPRPRPISQPRP | -0.261
109 | RRIRNRPPRLPRPRPRPITHPRP | -0.644
110 | RRIRNRPPRLPRPRPRPITVPRP | -0.0598
111 | RRIRNRPPRLPRPRPRPIVHPRP | -0.205
112 | RRIRNRPPRLPRPRPRPIWQPRP | 0.0123
113 | RRIRNRPPRLPRPRPRPKAAPRP | 3.06
114 | RRIRNRPPRLPRPRPRPKAFPRP | -0.0608
115 | RRIRNRPPRLPRPRPRPKAQPRP | 0.0241
116 | RRIRNRPPRLPRPRPRPKASPRP | -0.127
117 | RRIRNRPPRLPRPRPRPKCIPRP | -0.223
118 | RRIRNRPPRLPRPRPRPKCLPRP | 0.0771
119 | RRIRNRPPRLPRPRPRPKCPPRP | -0.124
120 | RRIRNRPPRLPRPRPRPKCRPRP | 0.0642
121 | RRIRNRPPRLPRPRPRPKDNPRP | -0.484
122 | RRIRNRPPRLPRPRPRPKDPPRP | 0.0665
123 | RRIRNRPPRLPRPRPRPKFEPRP | 0.0146
124 | RRIRNRPPRLPRPRPRPKFGPRP | 0.0252
125 | RRIRNRPPRLPRPRPRPKGRPRP | 0.0238

Row | Sequence | shrunken log2 fold change
126 | RRIRNRPPRLPRPRPRPKHAPRP | 0.0877
127 | RRIRNRPPRLPRPRPRPKHRPRP | 0.0319
128 | RRIRNRPPRLPRPRPRPKKDPRP | 0.0489
129 | RRIRNRPPRLPRPRPRPKKQPRP | -0.0788
130 | RRIRNRPPRLPRPRPRPKKRPRP | 0.201
131 | RRIRNRPPRLPRPRPRPKMCPRP | -0.0269
132 | RRIRNRPPRLPRPRPRPKNNPRP | -0.407
133 | RRIRNRPPRLPRPRPRPKQIPRP | -0.294
134 | RRIRNRPPRLPRPRPRPKQKPRP | 0.0568
135 | RRIRNRPPRLPRPRPRPKRIPRP | -0.107
136 | RRIRNRPPRLPRPRPRPKRKPRP | 0.226
137 | RRIRNRPPRLPRPRPRPKRSPRP | 0.115
138 | RRIRNRPPRLPRPRPRPKTTPRP | 0.118
139 | RRIRNRPPRLPRPRPRPKVAPRP | 0.0368
140 | RRIRNRPPRLPRPRPRPKVFPRP | 0.0215
141 | RRIRNRPPRLPRPRPRPKVGPRP | 0.148
142 | RRIRNRPPRLPRPRPRPKYDPRP | -0.624
143 | RRIRNRPPRLPRPRPRPLAGPRP | 0.148
144 | RRIRNRPPRLPRPRPRPLCGPRP | -0.13
145 | RRIRNRPPRLPRPRPRPLCHPRP | -0.359
146 | RRIRNRPPRLPRPRPRPLCKPRP | -0.146
147 | RRIRNRPPRLPRPRPRPLDAPRP | 0.0657
148 | RRIRNRPPRLPRPRPRPLDLPRP | 0.00897
149 | RRIRNRPPRLPRPRPRPLDVPRP | -0.251
150 | RRIRNRPPRLPRPRPRPLHCPRP | -0.168
